The source of these data is patent US20230272119A1 (MARENGO THERAPEUTICS, published 2023).

In assay [1] the target is T1, α-activin receptors heavy-LgBiT (SEQ ID NO: 149).
T1 construct: VH-CH1-linker-LgBiT; germline VH1-46*01
Nature of the assay: NanoBiT, HC-LgBiT:LC-SmBiT:competing LC 1:1:1; competing kappa LC m42 (SEQ ID NO: 133).

Assay [2] has as its target T1, α-activin receptors heavy-LgBiT (SEQ ID …). Nature of the assay: NanoBiT, HC-LgBiT:LC-SmBiT:competing LC 1:1:1; competing kappa LC m9 (SEQ ID NO: 100).
For assay [3] the target is unchanged. Nature of the assay: NanoBiT, HC-LgBiT:LC-SmBiT:competing LC 1:1:1; competing kappa LC m12 (SEQ ID NO: 103).
Assay [4] shares this target. Kind of assay: NanoBiT, HC-LgBiT:LC-SmBiT:competing LC 1:1:1; competing kappa LC m33 (SEQ ID NO: 124).
Assay [5] has the same target. Kind of assay: NanoBiT, HC-LgBiT:LC-SmBiT:competing LC 1:1:1; competing kappa LC m24 (SEQ ID NO: 115).
The target is the same in assay [6]. Kind of assay: NanoBiT, HC-LgBiT:LC-SmBiT:competing LC 1:1:1; competing kappa LC m27 (SEQ ID NO: 118).
Assay [7] shares this target. Kind of assay: NanoBiT, HC-LgBiT:LC-SmBiT:competing LC 1:1:1; competing kappa LC m6 (SEQ ID NO: 97).
Assay [8] has as its target T2, α-IL12β heavy-LgBiT (SEQ ID NO: 161).
T2 construct: VH-CH1-linker-LgBiT; germline VH3-33*01
Kind of assay: NanoBiT, HC-LgBiT:LC-SmBiT:competing LC 1:1:1; competing kappa LC m9 (SEQ ID NO: 100).

The target is the same in assay [9]. Kind of assay: NanoBiT, HC-LgBiT:LC-SmBiT:competing LC 1:1:1; competing kappa LC m12 (SEQ ID NO: 103).
For assay [10] the target is unchanged. Kind of assay: NanoBiT, HC-LgBiT:LC-SmBiT:competing LC 1:1:1; competing kappa LC m18 (SEQ ID NO: 109).
The target is the same in assay [11]. Kind of assay: NanoBiT, HC-LgBiT:LC-SmBiT:competing LC 1:1:1; competing kappa LC m15 (SEQ ID NO: 106).
Assay [12] shares this target. Kind of assay: NanoBiT, HC-LgBiT:LC-SmBiT:competing LC 1:1:1; competing kappa LC m6 (SEQ ID NO: 97).
Assay [13] addresses T3, α-CSF2 heavy-LgBiT (SEQ ID NO: 101).
T3 construct: VH-CH1-linker-LgBiT; germline VH1-3*01
Nature of the assay: NanoBiT, HC-LgBiT:LC-SmBiT:competing LC 1:1:1; competing lambda LC m72 (SEQ ID NO: 163).

For assay [14] the target is unchanged. Kind of assay: NanoBiT, HC-LgBiT:LC-SmBiT:competing LC 1:1:1; competing lambda LC m69 (SEQ ID NO: 160).
For assay [15] the target is unchanged. Kind of assay: NanoBiT, HC-LgBiT:LC-SmBiT:competing LC 1:1:1; competing lambda LC m66 (SEQ ID NO: 157).
The target is the same in assay [16]. Kind of assay: NanoBiT, HC-LgBiT:LC-SmBiT:competing LC 1:1:1; competing lambda LC m48 (SEQ ID NO: 139).
The target in assay [17] is T4, α-TRAILR2 heavy-LgBiT (SEQ ID NO: 146).
T4 construct: VH-CH1-linker-LgBiT; germline VH3-20*01
Kind of assay: NanoBiT, HC-LgBiT:LC-SmBiT:competing LC 1:1:1; competing kappa LC m21 (SEQ ID NO: 112).

Assay [18] shares this target. Nature of the assay: NanoBiT, HC-LgBiT:LC-SmBiT:competing LC 1:1:1; competing kappa LC m42 (SEQ ID NO: 133).
For assay [19] the target is unchanged. Kind of assay: NanoBiT, HC-LgBiT:LC-SmBiT:competing LC 1:1:1; competing kappa LC m12 (SEQ ID NO: 103).
For assay [20] the target is unchanged. Kind of assay: NanoBiT, HC-LgBiT:LC-SmBiT:competing LC 1:1:1; competing kappa LC m18 (SEQ ID NO: 109).
The target is the same in assay [21]. Kind of assay: NanoBiT, HC-LgBiT:LC-SmBiT:competing LC 1:1:1; competing kappa LC m15 (SEQ ID NO: 106).
Assay [22] shares this target. Kind of assay: NanoBiT, HC-LgBiT:LC-SmBiT:competing LC 1:1:1; competing kappa LC m24 (SEQ ID NO: 115).
Assay [23] has the same target. Nature of the assay: NanoBiT, HC-LgBiT:LC-SmBiT:competing LC 1:1:1; competing kappa LC m6 (SEQ ID NO: 97).
In assay [24] the target is T5, α-TNFR10β heavy-hCHIg_Hole_Cys (SEQ ID NO: 177).
T5 construct: full heavy chain, human Fc hole; Fab analysed after papain cleavage in the MS assay; also called α-TRAILR2 arm first chain; HCP1 of multispecific molecules 4, 6, 12
Kind of assay: intact MS of papain-cleaved multispecific molecule 4; Fab of this pairing observed (observed mass, Da).

Assay [25] has as its target T6, α-CTLA4 heavy-hCHIg_Knob_Cys-GH_scFv (SEQ ID NO: 169).
T6 construct: full heavy chain, human Fc knob, C-terminal scFv; germline VH3-30*01; also called HCP2 of multispecific molecule 12
Nature of the assay: KappaSelect resin analysis of multispecific molecule 12, reduced gel; said to agree with lambda light chain pairing with the kappa heavy chain in molecule 4.

The target of assay [26] is T7, α-CTLA4 heavy-hCHIg_Knob_Cys (SEQ ID NO: 168) (Homo sapiens (Human), UniProt P0DOX5 1-449 = IgG part).
T7 construct: full heavy chain, human Fc knob; Fab analysed after papain cleavage in the MS assay; germline VH3-30*01; also called HCP2 of multispecific molecules 3, 4, 5, 9
Kind of assay: intact MS of papain-cleaved multispecific molecule 4; mispaired Fab observed (observed mass, Da).

Assay [27] deals with T8, α-CD221 heavy-hCHIg_Hole_Cys (SEQ ID NO: 180).
T8 construct: full heavy chain, human Fc hole; Fab analysed after papain cleavage in the MS assay; germline VH1-69*01; also called HCP1 of multispecific molecule 5
Nature of the assay: intact MS of papain-cleaved multispecific molecule 5; Fab of this pairing observed (observed mass, Da).

B1: α-activin receptors light-SmBiT (SEQ ID NO: 150) (other)
light: QSALTQPASVSGSPGQSITISCTGTSSDVGSYNYVNWYQQHPGKAPKLMIYGVSKRPSGVSNRFSGSKSGNTASLTISGLQAEDEADYYCGTFAGGSYYGVFGGGTKLTVLGQPKANPTVTLFPPSSEELQANKATLVCLISDFYPGAVTVAWKADGSPVKAGVETTKPSKQSNNKYAASSYLSLTPEQWKSHRSYSCQVTHEGSTVEKTVAPTECSGSSGGGGSGGGGSSGGVTGYRLFEEIL
notes: lambda light chain-linker-SmBiT; germline Vl2-14*01
As to B1, the Percent pairing in assay [1] came to 87%; in assay [2], 90%; in assay [3], 81%; in assay [4] it was 100%; in assay [5], 75%; in [6] it was 79%. In addition, the Percent pairing in assay [7] came to 90%.

B2: α-IL12β light-SmBiT (SEQ ID NO: 162) (other)
light: QSVLTQPPSVSGAPGQRVTISCSGSRSNIGSNTVKWYQQLPGTAPKLLIYYNDQRPSGVPDRFSGSKSGTSASLAITGLQAEDEADYYCQSYDRYTHPALLFGTGTKVTVLGQPKANPTVTLFPPSSEELQANKATLVCLISDFYPGAVTVAWKADGSPVKAGVETTKPSKQSNNKYAASSYLSLTPEQWKSHRSYSCQVTHEGSTVEKTVAPTECSGSSGGGGSGGGGSSGGVTGYRLFEEIL
notes: lambda light chain-linker-SmBiT; germline Vl1-44*01
Take B2: the Percent pairing came to 100% in [8]; 100% in assay [9]; 80% in assay [10]; 100% in assay [11]; 100% in assay [12].

B3: α-CSF2 light-SmBiT (SEQ ID NO: 102) (other)
light: EIVLTQSPATLSVSPGERATLSCRASQSVGTNVAWYQQKPGQAPRVLIYSTSSRATGITDRFSGSGSGTDFTLTISRLEPEDFAVYYCQQFNKSPLTFGGGTKVEIKRTVAAPSVFIFPPSDEQLKSGTASVVCLLNNFYPREAKVQWKVDNALQSGNSQESVTEQDSKDSTYSLSSTLTLSKADYEKHKVYACEVTHQGLSSPVTKSFNRGECGSSGGGGSGGGGSSGGVTGYRLFEEIL
notes: kappa light chain-linker-SmBiT; germline Vk3D-20*01
B3: the Percent pairing was determined as 83% in [13], 98% in assay [14], 93% in assay [15] and 100% in assay [16].

B4: α-TRAILR2 light-SmBiT (SEQ ID NO: 147) (other)
light: SSELTQDPAVSVALGQTVRITCQGDSLRSYYASWYQQKPGQAPVLVIYGKNNRPSGIPDRFSGSSSGNTASLTITGAQAEDEADYYCNSRDSSGNHVVFGGGTKLTVLGQPKANPTVTLFPPSSEELQANKATLVCLISDFYPGAVTVAWKADGSPVKAGVETTKPSKQSNNKYAASSYLSLTPEQWKSHRSYSCQVTHEGSTVEKTVAPTECSGSSGGGGSGGGGSSGGVTGYRLFEEIL
notes: lambda light chain-linker-SmBiT; germline Vl3-19*01
Take B4: the Percent pairing in assay [17] is 100%; in [18], 100%; in assay [19], 84%; in assay [20], 100%; in assay [21], 77%; in assay [22] it was 81%. In [23], this molecule showed a Percent pairing of 100%.

B5: α-TRAILR2 light (SEQ ID NO: 148) (other)
light: SSELTQDPAVSVALGQTVRITCQGDSLRSYYASWYQQKPGQAPVLVIYGKNNRPSGIPDRFSGSSSGNTASLTITGAQAEDEADYYCNSRDSSGNHVVFGGGTKLTVLGQPKANPTVTLFPPSSEELQANKATLVCLISDFYPGAVTVAWKADGSPVKAGVETTKPSKQSNNKYAASSYLSLTPEQWKSHRSYSCQVTHEGSTVEKTVAPTECS
notes: unmodified lambda light chain; germline Vl3-19*01; also called LLCP of multispecific molecules 4, 6, 12
As to B5, the binding result in [24], in assay [25] and in assay [26] was “binds” each time.

B6: α-CD221 light (SEQ ID NO: 136) (other)
light: SSELTQDPAVSVALGQTVRITCQGDSLRSYYATWYQQKPGQAPILVIYGENKRPSGIPDRFSGSSSGNTASLTITGAQAEDEADYYCKSRDGSGQHLVFGGGTKLTVLGQPKANPTVTLFPPSSEELQANKATLVCLISDFYPGAVTVAWKADGSPVKAGVETTKPSKQSNNKYAASSYLSLTPEQWKSHRSYSCQVTHEGSTVEKTVAPTECS
notes: unmodified lambda light chain; germline Vl3-19*01; also called LLCP of multispecific molecule 5
Consider B6, for which the binding result in assay [27] is given as “binds”.
